{
  "source": "paper PMC10773654",
  "target": "human Interleukin-1 Receptor Associated Kinase 1 (IRAK1) protein, nanoluciferase BiMC construct (human) (UniProt P51617)",
  "sequence (P51617 whole entry, the tested form may be a part)": "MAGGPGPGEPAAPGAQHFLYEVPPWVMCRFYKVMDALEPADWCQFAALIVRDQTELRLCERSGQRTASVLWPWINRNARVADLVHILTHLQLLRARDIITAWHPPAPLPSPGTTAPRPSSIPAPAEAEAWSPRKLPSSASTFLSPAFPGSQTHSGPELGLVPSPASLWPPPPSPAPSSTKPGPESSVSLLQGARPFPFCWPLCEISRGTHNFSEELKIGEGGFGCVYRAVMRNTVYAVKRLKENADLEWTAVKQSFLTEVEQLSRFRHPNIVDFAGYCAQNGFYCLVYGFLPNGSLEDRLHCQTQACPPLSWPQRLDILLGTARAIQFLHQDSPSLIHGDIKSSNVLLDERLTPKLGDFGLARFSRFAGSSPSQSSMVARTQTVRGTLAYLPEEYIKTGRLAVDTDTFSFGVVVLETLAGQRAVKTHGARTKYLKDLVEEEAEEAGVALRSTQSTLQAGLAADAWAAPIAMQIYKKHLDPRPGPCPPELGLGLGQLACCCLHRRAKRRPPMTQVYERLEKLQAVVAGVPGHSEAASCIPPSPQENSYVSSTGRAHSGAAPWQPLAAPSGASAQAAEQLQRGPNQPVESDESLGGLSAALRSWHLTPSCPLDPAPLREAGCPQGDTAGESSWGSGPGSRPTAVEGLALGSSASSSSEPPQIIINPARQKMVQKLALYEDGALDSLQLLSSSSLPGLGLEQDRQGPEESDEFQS",
  "assay": "split reporter",
  "data": [
    {"substance": "SINV CP truncation mutant ΔRI (RII and Protease domains) (domain or fragment)", "values": [
      {"measurement": "fold BiMC of nanoluciferase relative to the full-length SINV CP protein", "value": 2, "unit": "fold"}
    ]}
  ]
}
